Test results from publication doi:10.1101/2020.09.12.286559 (bioRxiv, 2020).

Experiments:
[1] = biological target: T1, Recombinant N-terminal His6-tagged TRF1 (human), P54274; experiment: AFM volume analysis; conditions: remark: other sources report otherwise
T1 chain: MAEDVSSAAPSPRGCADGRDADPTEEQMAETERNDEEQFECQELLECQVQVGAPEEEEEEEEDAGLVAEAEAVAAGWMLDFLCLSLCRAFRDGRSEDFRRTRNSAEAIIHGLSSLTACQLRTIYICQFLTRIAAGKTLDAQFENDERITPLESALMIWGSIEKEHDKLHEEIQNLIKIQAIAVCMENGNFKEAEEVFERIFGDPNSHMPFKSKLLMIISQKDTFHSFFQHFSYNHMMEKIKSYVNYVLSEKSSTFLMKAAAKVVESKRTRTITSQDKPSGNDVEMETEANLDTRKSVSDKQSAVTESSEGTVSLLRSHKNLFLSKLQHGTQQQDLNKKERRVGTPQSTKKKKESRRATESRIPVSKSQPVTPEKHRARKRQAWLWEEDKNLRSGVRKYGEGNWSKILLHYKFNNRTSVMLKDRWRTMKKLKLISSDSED

[2] = biological target: T2, N-terminal HA-tagged TIN2L (HA-TIN2L, 1-451 aa) (human, UniProt Q9BSI4-1 1-451); experiment: native gel or EMSA
T2 sequence: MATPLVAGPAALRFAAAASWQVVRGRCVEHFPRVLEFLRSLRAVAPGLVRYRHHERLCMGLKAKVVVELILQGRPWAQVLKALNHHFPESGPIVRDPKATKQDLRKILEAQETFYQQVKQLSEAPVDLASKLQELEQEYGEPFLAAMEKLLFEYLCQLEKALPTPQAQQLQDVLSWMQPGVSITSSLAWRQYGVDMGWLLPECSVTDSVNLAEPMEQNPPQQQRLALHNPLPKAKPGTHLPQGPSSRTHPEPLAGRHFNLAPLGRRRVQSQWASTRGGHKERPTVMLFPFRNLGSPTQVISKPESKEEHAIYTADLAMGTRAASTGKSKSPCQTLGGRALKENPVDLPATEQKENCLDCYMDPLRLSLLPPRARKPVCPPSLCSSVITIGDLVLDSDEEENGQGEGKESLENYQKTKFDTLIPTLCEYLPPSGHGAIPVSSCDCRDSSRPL

B1: Recombinant N-terminal His6-tagged TRF1 (natural protein)
chain: MAEDVSSAAPSPRGCADGRDADPTEEQMAETERNDEEQFECQELLECQVQVGAPEEEEEEEEDAGLVAEAEAVAAGWMLDFLCLSLCRAFRDGRSEDFRRTRNSAEAIIHGLSSLTACQLRTIYICQFLTRIAAGKTLDAQFENDERITPLESALMIWGSIEKEHDKLHEEIQNLIKIQAIAVCMENGNFKEAEEVFERIFGDPNSHMPFKSKLLMIISQKDTFHSFFQHFSYNHMMEKIKSYVNYVLSEKSSTFLMKAAAKVVESKRTRTITSQDKPSGNDVEMETEANLDTRKSVSDKQSAVTESSEGTVSLLRSHKNLFLSKLQHGTQQQDLNKKERRVGTPQSTKKKKESRRATESRIPVSKSQPVTPEKHRARKRQAWLWEEDKNLRSGVRKYGEGNWSKILLHYKFNNRTSVMLKDRWRTMKKLKLISSDSED
stoichiometry N [1]: 2
binding result [2]: binds
